Data from the supplement of paper PMC11246515.
± gives the standard deviation of the averaged measurements.

Experiment: total protein half-life in vivo (active degradation + dilution); higher = more stable protein
[1] = E. coli NCM3722 delta-clpP delta-lon delta-hslV, growth: N-lim chemostat, doubling time 6 h
[2] = E. coli NCM3722 delta-clpP, growth: N-lim chemostat, doubling time 6 h
[3] = E. coli NCM3722 delta-lon, growth: N-lim chemostat, doubling time 6 h
[4] = E. coli NCM3722 delta-smpB, growth: N-lim chemostat, doubling time 6 h
[5] = wild type E. coli NCM3722, growth: C-lim chemostat, doubling time 3 h
[6] = wild type E. coli NCM3722, growth: C-lim chemostat, doubling time 6 h
[7] = wild type E. coli NCM3722, growth: C-lim chemostat, doubling time 12 h
[8] = wild type E. coli NCM3722, growth: N-lim chemostat, doubling time 6 h
[9] = wild type E. coli NCM3722, growth: N-lim chemostat, doubling time 12 h
[10] = wild type E. coli NCM3722, growth: P-lim chemostat, doubling time 6 h
[11] = wild type E. coli NCM3722, growth: P-lim chemostat, doubling time 12 h
[12] = E. coli NCM3722 delta-hslV, growth: N-lim chemostat, doubling time 6 h

**Q.** Which “total protein half-life in vivo” value [1] does the source give for “MNDYKMTPGERRATWGLGTVFSLRMLGMFMVLPVLTTYGMALQGASEALIGIAIGIYGLTQAVFQIPFGLLSDRIGRKPLIVGGLAVFAAGSVIAALSDSIWGIILGRALQGSGAIAAAVMALLSDLTREQNRTKAMAFIGVSFGITFAIAMVLGPIITHKLGLHALFWMIAILATTGIALTIWVVPNSSTHVLNRESGMVKGSFSKVLAEPRLLKLNFGIMCLHILLMSTFVALPGQLADAGFPAAEHWKVYLATMLIAFGSVVPFIIYAEVKRKMKQVFVFCVGLIVVAEIVLWNAQTQFWQLVVGVQLFFVAFNLMEALLPSLISKESPAGYKGTAMGVYSTSQFLGVAIGGSLGGWINGMFDGQGVFLAGAMLAAVWLTVASTMKEPPYVSSLRIEIPANIAANEALKVRLLETEGIKEVLIAEEEHSAYVKIDSKVTNRFEIEQAIRQA” here?
**A.** The value was 5.51 h.

**Q.** What about the “total protein half-life in vivo” value [2] of the same sequence?
**A.** The value was 5.38 ± 0.66 h.

**Q.** What about the “total protein half-life in vivo” value [3] of the same sequence?
**A.** Its value is 5.73 ± 0.96 h.

**Q.** What about the “total protein half-life in vivo” value [4] of the same sequence?
**A.** Its value is 5.16 ± 0.38 h.

**Q.** And the “total protein half-life in vivo” value [5]?
**A.** The value was 3.17 ± 0.88 h.

**Q.** What about the “total protein half-life in vivo” value [6] of the same sequence?
**A.** Its value is 5.45 ± 0.11 h.

**Q.** And the “total protein half-life in vivo” value [7]?
**A.** Its value is 11.2 ± 1.9 h.

**Q.** What about the “total protein half-life in vivo” value [8] of the same sequence?
**A.** Its value is 5.15 ± 0.25 h.

**Q.** And the “total protein half-life in vivo” value [9]?
**A.** Its value is 10.1 ± 0.3 h.

**Q.** What about the “total protein half-life in vivo” value [10] of the same sequence?
**A.** Its value is 5.42 ± 0.72 h.

**Q.** And the “total protein half-life in vivo” value [11]?
**A.** The value was 8.82 ± 0.54 h.

**Q.** With “MNEFPVVLVINCGSSSIKFSVLDASDCEVLMSGIADGINSENAFLSVNGGEPAPLAHHSYEGALKAIAFELEKRNLNDSVALIGHRIAHGGSIFTESAIITDEVIDNIRRVSPLAPLHNYANLSGIESAQQLFPGVTQVAVFDTSFHQTMAPEAYLYGLPWKYYEELGVRRYGFHGTSHRYVSQRAHSLLNLAEDDSGLVVAHLGNGASICAVRNGQSVDTSMGMTPLEGLMMGTRSGDVDFGAMSWVASQTNQSLGDLERVVNKESGLLGISGLSSDLRVLEKAWHEGHERAQLAIKTFVHRIARHIAGHAASLRRLDGIIFTGGIGENSSLIRRLVMEHLAVLGLEIDTEMNNRSNSCGERIVSSENARVICAVIPTNEEKMIALDAIHLGKVNAPAEFA” as the sequence, how does the “total protein half-life in vivo” value [1] read?
**A.** Its value is 3.9 h.

**Q.** What does the source list for “MNEFSILCRVLGSLYYRQPQDPLLVPLFTLIREGKLAANWPLEQDELLTRLQKSCDMTQVSADYNALFIGDECAVPPYRSAWVEGATEAEVRAFLSERGMPLADTPADHIGTLLLAASWLEDQSTEDESEALETLFSEYLLPWCGAFLGKVEAHATTPFWRTMAPLTRDAISAMWDELEEDSEE”?
**A.** total protein half-life in vivo [1]: 5.33 ± 0.97 h; total protein half-life in vivo [2]: 5.83 ± 1.6 h; total protein half-life in vivo [12]: 5.14 ± 0.17 h; total protein half-life in vivo [3]: 5.97 ± 1.5 h; total protein half-life in vivo [4]: 5.24 ± 0.65 h; total protein half-life in vivo [5]: 3.342 ± 0.021 h; total protein half-life in vivo [6]: 6.25 ± 0.39 h; total protein half-life in vivo [8]: 4.99 ± 0.71 h; total protein half-life in vivo [9]: 9.91 ± 0.97 h

**Q.** What does the source list for “MNEHHQPFEEIKLINANGAEQWSARQLGKLLGYSEYRHFIPVLTRAKEACENSGHTIDDHFEEILDMVKIGSNAKRALKDIVLSRYACYLVVQNGDPAKPVIAAGQTYFAIQTRRQELADDEAFKQLREDEKRLFLRNELKEHNKQLVEAAQQAGVATATDFAIFQNHGYQGLYGGLDQKAIHQRKGLKKNQKILDHMGSTELAANLFRATQTEEKLKRDGVNSKQQANTTHFDVGRKVRQTIQELGGTMPEELPTPQVSIKQLENSVKITEKK”?
**A.** total protein half-life in vivo [5]: 2.12 h; total protein half-life in vivo [6]: 3.02 h; total protein half-life in vivo [7]: 5.87 h

**Q.** Which “total protein half-life in vivo” value [1] does the source give for “MNEQSQAKSPEALRAMVAGTLANFQHPTLKHNLTTLKALHHVAWMDDTLHVELVMPFVWHSAFEELKEQCSAELLRITGAKAIDWKLSHNIATLKRVKNQPGINGVKNIIAVSSGKGGVGKSSTAVNLALALAAEGAKVGILDADIYGPSIPTMLGAENQRPTSPDGTHMAPIMSHGLATNSIGYLVTDDNAMVWRGPMASKALMQMLQETLWPDLDYLVLDMPPGTGDIQLTLAQNIPVTGAVVVTTPQDIALIDAKKGIVMFEKVEVPVLGIVENMSVHICSNCGHHEPIFGTGGAEKLAEKYHTQLLGQMPLHISLREDLDKGTPTVISRPESEFTAIYRQLADRVAAQLYWQGEVIPGEISFRAV [P0AF08]” here?
**A.** The value was 5.1 ± 1 h.

**Q.** And the “total protein half-life in vivo” value [2]?
**A.** Its value is 4.454 ± 0.02 h.

**Q.** And the “total protein half-life in vivo” value [12]?
**A.** The value was 3.96 ± 0.12 h.

**Q.** And the “total protein half-life in vivo” value [3]?
**A.** Its value is 4.15 ± 0.34 h.

**Q.** And the “total protein half-life in vivo” value [4]?
**A.** The value was 3.876 ± 0.013 h.

**Q.** And the “total protein half-life in vivo” value [5]?
**A.** The value was 2.87 ± 0.2 h.

**Q.** What about the “total protein half-life in vivo” value [6] of the same sequence?
**A.** Its value is 5.22 ± 0.23 h.

**Q.** What about the “total protein half-life in vivo” value [7] of the same sequence?
**A.** Its value is 9.46 ± 1.4 h.

**Q.** What about the “total protein half-life in vivo” value [8] of the same sequence?
**A.** The value was 3.71 ± 0.21 h.

**Q.** And the “total protein half-life in vivo” value [9]?
**A.** Its value is 5.9098 ± 0.00063 h.

**Q.** What about the “total protein half-life in vivo” value [10] of the same sequence?
**A.** The value was 5.19 ± 0.43 h.

**Q.** What about the “total protein half-life in vivo” value [11] of the same sequence?
**A.** Its value is 9.96 ± 0.64 h.

**Q.** For “MNFLAHLHLAHLAESSLSGNLLADFVRGNPEESFPPDVVAGIHMHRRIDVLTDNLPEVREAREWFRSETRRVAPITLDVMWDHFLSRHWSQLSPDFPLQEFVCYAREQVMTILPDSPPRFINLNNYLWSEQWLVRYRDMDFIQNVLNGMASRRPRLDALRDSWYDLDAHYDALETRFWQFYPRMMAQASRKAL”, which “total protein half-life in vivo” value [1] is on record?
**A.** The value was 5.09 ± 0.57 h.

**Q.** What about the “total protein half-life in vivo” value [2] of the same sequence?
**A.** Its value is 2 ± 0.55 h.

**Q.** And the “total protein half-life in vivo” value [12]?
**A.** Its value is 2.32 h.

**Q.** What about the “total protein half-life in vivo” value [3] of the same sequence?
**A.** Its value is 3.5 ± 0.25 h.

**Q.** And the “total protein half-life in vivo” value [4]?
**A.** Its value is 3.83 h.

**Q.** And the “total protein half-life in vivo” value [5]?
**A.** The value was 2.18 h.

**Q.** And the “total protein half-life in vivo” value [6]?
**A.** The value was 4.23 h.

**Q.** What about the “total protein half-life in vivo” value [7] of the same sequence?
**A.** Its value is 6.12 h.

**Q.** And the “total protein half-life in vivo” value [8]?
**A.** Its value is 3.3 h.

**Q.** And the “total protein half-life in vivo” value [9]?
**A.** The value was 4.2 h.

**Q.** What about the “total protein half-life in vivo” value [10] of the same sequence?
**A.** Its value is 3.04 ± 0.068 h.

**Q.** And the “total protein half-life in vivo” value [11]?
**A.** Its value is 3.73 ± 1.6 h.

**Q.** With “MNFPLIANIVVFVVLLFALAQTRHKQWSLAKKVLVGLVMGVVFGLALHTIYGSDSQVLKDSVQWFNIVGNGYVQLLQMIVMPLVFASILSAVARLHNASQLGKISFLTIGTLLFTTLIAALVGVLVTNLFGLTAEGLVQGGAETARLNAIESNYVGKVSDLSVPQLVLSFIPKNPFADLTGANPTSIISVVIFAAFLGVAALKLLKDDAPKGERVLAAIDTLQSWVMKLVRLVMQLTPYGVLALMTKVVAGSNLQDIIKLGSFVVASYLGLLIMFAVHGILLGINGVSPLKYFRKVWPVLTFAFTSRSSAASIPLNVEAQTRRLGVPESIASFAASFGATIGQNGCAGLYPAMLAVMVAPTVGINPLDPMWIATLVGIVTVSSAGVAGVGGGATFAALIVLPAMGLPVTLVALLISVEPLIDMGRTALNVSGSMTAGTLTSQWLKQTDKAILDSEDDAELAHH” as the sequence, how does the “total protein half-life in vivo” value [1] read?
**A.** The value was 5.42 ± 0.17 h.

**Q.** And the “total protein half-life in vivo” value [2]?
**A.** The value was 4.76 ± 0.058 h.

**Q.** What about the “total protein half-life in vivo” value [12] of the same sequence?
**A.** The value was 5.07 ± 0.26 h.

**Q.** What about the “total protein half-life in vivo” value [3] of the same sequence?
**A.** Its value is 5 ± 0.65 h.

**Q.** What about the “total protein half-life in vivo” value [4] of the same sequence?
**A.** The value was 5.38 ± 0.78 h.

**Q.** What about the “total protein half-life in vivo” value [5] of the same sequence?
**A.** The value was 3.35 ± 0.46 h.

**Q.** What about the “total protein half-life in vivo” value [6] of the same sequence?
**A.** The value was 6.36 ± 1.8 h.

**Q.** And the “total protein half-life in vivo” value [7]?
**A.** The value was 11.4 ± 2 h.

**Q.** And the “total protein half-life in vivo” value [8]?
**A.** The value was 4.95 ± 1.1 h.

**Q.** What about the “total protein half-life in vivo” value [9] of the same sequence?
**A.** Its value is 8.91 ± 0.48 h.

**Q.** And the “total protein half-life in vivo” value [10]?
**A.** Its value is 5.29 ± 0.62 h.

**Q.** What about the “total protein half-life in vivo” value [11] of the same sequence?
**A.** The value was 7.43 ± 0.75 h.
